According to patent publication US20260242478A1 (published 2026):
Where no end group is shown, it is not given here.

Tests used:
PSMA Fab [1] = target: T1, PSMA Fab (biotinylated (site not given)); experiment: phage ELISA on captured biotinylated PSMA Fab, wells pre-incubated with PSMA antigen (competitor: PSMA); anti-M13 HRP detection
T1 construct: Biotinylated PSMA Fab captured on neutravidin plates in the phage ELISA; also called Anti-PSMA Fab; 006 PSMA Fab

PSMA Fab [2] = target: T1, PSMA Fab; experiment: phage ELISA: clonal phage supernatant on biotinylated PSMA Fab captured on neutravidin plate, blocking buffer alone; anti-M13 HRP detection;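 also: crude clonal phage supernatants added to wells preincubated with blocking buffer, incubated briefly, bound phage detected with a horseradish-conjugated anti-M13 antibody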
Protocol: (§1) Clonal phage were harvested as crude supernatants and screened via standard ELISAs. […] Prior to the addition of clonal phage. wells were incubated with blocking buffer and PSMA antigen or blocking buffer alone. Without washing or aspirating, clonal phage supernatants were then added to the wells and incubated for a short time. Wells were then washed followed by detection of bound phage using a horse radish conjugated anti-M13 antibody.

PSMA Fab (006 PSMA Fab) [3] = target: T2, PSMA Fab (006 PSMA Fab); experiment: clonal phage ELISA on biotinylated PSMA Fab captured on neutravidin plates, anti-M13-HRP detection;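 also: crude clonal phage supernatants added to wells preincubated with PSMA antigen or with blocking buffer only (no wash between), briefly incubated, then washed before detecting bound phage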
T2 construct: In the phage ELISA the PSMA Fab was biotinylated and captured on neutravidin coated plates; also called Anti-PSMA Fab; anti-PSMA Fab
Protocol: as §1

PSMA Fab (006 PSMA Fab) [4] = target: T2, PSMA Fab (006 PSMA Fab); experiment: clonal phage ELISA on captured PSMA Fab, wells pre-incubated with PSMA antigen as competitor (column head not shown, assumed)

B1: Phage-2466 (peptide, not shown: large carriers)
peptide: VVKWCTPSWMCTGF
modifications: cysteine pairing not given here; also: displayed as fusion to phage pIII
notes: Clonal phage of the Peptide-180 optimisation library, tested as crude supernatant
With B1 the “Phage binding ELISA signal, Anti-PSMA Fab in presence of PSMA” value (shortened to “Phage binding ELISA signal … of PSMA”) (PSMA Fab [1]) was 0.0837 and the “Phage binding ELISA signal, Anti-PSMA Fab” value (PSMA Fab [2]) was 1.24.

B2: Phage-2478 (peptide, not shown: large carriers)
peptide: EMIRCIPDWMCMSY
modifications: cysteine pairing not given here; also: displayed on phage as fusion to pIII, pIII and linker sequence not given here
notes: as for B1
With B2 the “Phage binding ELISA signal … of PSMA” value (PSMA Fab [1]) was 0.0624 and the “Phage binding ELISA signal, Anti-PSMA Fab” value (PSMA Fab [2]) was 1.23.

With VAKWCIPSWMCETV (cysteine pairing not given here; also: displayed as fusion to phage pIII) [Phage-2419] the “Phage binding ELISA signal, Anti-PSMA Fab” value (PSMA Fab (006 PSMA Fab) [3]) was 1.33 and the “Phage binding ELISA signal, Anti-PSMA Fab with PSMA antigen” value (PSMA Fab (006 PSMA Fab) [4]) was 0.0735.

B3: Phage-2467 (peptide, not shown: large carriers)
peptide: GDKWCIPDWMCVQS
modifications: cysteine pairing not given here; also: displayed as fusion to phage pIII
notes: as for B1
For B3, the “Phage binding ELISA signal … of PSMA” value (PSMA Fab [1]) was 0.0692 and the “Phage binding ELISA signal, Anti-PSMA Fab” value (PSMA Fab [2]) was 1.24.

With TVKWCVPPWMCSVP [Phage-2407] the “Phage binding ELISA signal, Anti-PSMA Fab” value (PSMA Fab (006 PSMA Fab) [3]) was 1.36 and the “Phage binding ELISA signal, Anti-PSMA Fab with PSMA antigen” value (PSMA Fab (006 PSMA Fab) [4]) was 0.0764.

B4: Phage-2412 (peptide)
peptide: GEKWCIPDWMCAAA
modifications: cysteine pairing not given here; also: displayed on bacteriophage by fusion to pIII
For B4, the “Phage binding ELISA signal, Anti-PSMA Fab” value (PSMA Fab (006 PSMA Fab) [3]) was 1.34 and the “Phage binding ELISA signal, Anti-PSMA Fab with PSMA antigen” value (PSMA Fab (006 PSMA Fab) [4]) was 0.0769.

B5: Phage-2476 (peptide, not shown: large carriers)
peptide: YHNWCVPQWMCVGL
modifications: cysteine pairing not given here; also: displayed on phage as fusion to pIII, pIII and linker sequence not given here
notes: as for B1
In the case of B5, the “Phage binding ELISA signal … of PSMA” value (PSMA Fab [1]) is reported as 0.127 and the “Phage binding ELISA signal, Anti-PSMA Fab” value (PSMA Fab [2]) is reported as 1.23.

With EIKWCIPSWMCNTL (cysteine pairing not given here; also: displayed as fusion to phage pIII) [Phage-2420] the “Phage binding ELISA signal, Anti-PSMA Fab” value (PSMA Fab (006 PSMA Fab) [3]) was 1.33 and the “Phage binding ELISA signal, Anti-PSMA Fab with PSMA antigen” value (PSMA Fab (006 PSMA Fab) [4]) was 0.0772.

B6: Phage-2471 (peptide, not shown: large carriers)
peptide: MEKWCIPDWMCLGN
modifications: cysteine pairing not given here; also: displayed as fusion to phage pIII
notes: as for B1
For B6, the “Phage binding ELISA signal … of PSMA” value (PSMA Fab [1]) was 0.0809 and the “Phage binding ELISA signal, Anti-PSMA Fab” value (PSMA Fab [2]) was 1.24.

B7: Phage-2480 (peptide, not shown: large carriers)
peptide: PFKWCTPAWMCEVH
modifications: cysteine pairing not given here; also: displayed on phage as fusion to pIII, pIII and linker sequence not given here
notes: as for B1
With B7 the “Phage binding ELISA signal … of PSMA” value (PSMA Fab [1]) was 0.0594 and the “Phage binding ELISA signal, Anti-PSMA Fab” value (PSMA Fab [2]) was 1.23.

MHHWCIPAWMCSTE [Phage-2410] was tested, and the “Phage binding ELISA signal, Anti-PSMA Fab” value (PSMA Fab (006 PSMA Fab) [3]) was 1.35 and the “Phage binding ELISA signal, Anti-PSMA Fab with PSMA antigen” value (PSMA Fab (006 PSMA Fab) [4]) was 0.0812.

QAKWCIPQWMCESY [Phage-2411] was tested, and the “Phage binding ELISA signal, Anti-PSMA Fab” value (PSMA Fab (006 PSMA Fab) [3]) was 1.35 and the “Phage binding ELISA signal, Anti-PSMA Fab with PSMA antigen” value (PSMA Fab (006 PSMA Fab) [4]) was 0.0648.

For YIKWCTPPWMCELM [Phage-2409], the “Phage binding ELISA signal, Anti-PSMA Fab” value (PSMA Fab (006 PSMA Fab) [3]) was 1.35 and the “Phage binding ELISA signal, Anti-PSMA Fab with PSMA antigen” value (PSMA Fab (006 PSMA Fab) [4]) was 0.15.

B8: Phage-2418 (peptide)
peptide: FSKLCIPAWMCSEE
modifications: cysteine pairing not given here; also: displayed on bacteriophage by fusion to pIII
For B8, the “Phage binding ELISA signal, Anti-PSMA Fab” value (PSMA Fab (006 PSMA Fab) [3]) was 1.34 and the “Phage binding ELISA signal, Anti-PSMA Fab with PSMA antigen” value (PSMA Fab (006 PSMA Fab) [4]) was 0.0956.

B9: Phage-2477 (peptide, not shown: large carriers)
peptide: VEKWCIPQWMCSMD
modifications: cysteine pairing not given here; also: displayed on phage as fusion to pIII, pIII and linker sequence not given here
notes: as for B1
For B9, the “Phage binding ELISA signal … of PSMA” value (PSMA Fab [1]) was 0.0715 and the “Phage binding ELISA signal, Anti-PSMA Fab” value (PSMA Fab [2]) was 1.23.

B10: Phage-2413 (peptide)
peptide: LDMRCTPAWMCEGF
modifications: cysteine pairing not given here; also: displayed on bacteriophage by fusion to pIII
B10 was tested, and the “Phage binding ELISA signal, Anti-PSMA Fab” value (PSMA Fab (006 PSMA Fab) [3]) was 1.34 and the “Phage binding ELISA signal, Anti-PSMA Fab with PSMA antigen” value (PSMA Fab (006 PSMA Fab) [4]) was 0.0768.

B11: Phage-2472 (peptide, not shown: large carriers)
peptide: FDKWCIPPWMCVGP
modifications: cysteine pairing not given here; also: displayed on phage as fusion to pIII, pIII and linker sequence not given here
notes: as for B1
For B11, the “Phage binding ELISA signal … of PSMA” value (PSMA Fab [1]) was 0.0689 and the “Phage binding ELISA signal, Anti-PSMA Fab” value (PSMA Fab [2]) was 1.24.

B12: Phage-2417 (peptide)
peptide: FDPWCIPLWMCEGM
modifications: cysteine pairing not given here; also: displayed on bacteriophage by fusion to pIII
In the case of B12, the “Phage binding ELISA signal, Anti-PSMA Fab” value (PSMA Fab (006 PSMA Fab) [3]) is reported as 1.34 and the “Phage binding ELISA signal, Anti-PSMA Fab with PSMA antigen” value (PSMA Fab (006 PSMA Fab) [4]) is reported as 0.0667.

B13: Phage-2414 (peptide)
peptide: VEKWCTPPWMCRFD
modifications: cysteine pairing not given here; also: displayed on bacteriophage by fusion to pIII
In the case of B13, the “Phage binding ELISA signal, Anti-PSMA Fab” value (PSMA Fab (006 PSMA Fab) [3]) is reported as 1.34 and the “Phage binding ELISA signal, Anti-PSMA Fab with PSMA antigen” value (PSMA Fab (006 PSMA Fab) [4]) is reported as 0.074.

B14: Phage-2474 (peptide, not shown: large carriers)
peptide: DFHMCTPRWMCEGM
modifications: cysteine pairing not given here; also: displayed on phage as fusion to pIII, pIII and linker sequence not given here
notes: as for B1
B14 was tested, and the “Phage binding ELISA signal … of PSMA” value (PSMA Fab [1]) was 0.0622 and the “Phage binding ELISA signal, Anti-PSMA Fab” value (PSMA Fab [2]) was 1.24.

B15: Phage-2415 (peptide)
peptide: LWKWCTPPWMCEVS
modifications: cysteine pairing not given here; also: displayed on bacteriophage by fusion to pIII
With B15 the “Phage binding ELISA signal, Anti-PSMA Fab” value (PSMA Fab (006 PSMA Fab) [3]) was 1.34 and the “Phage binding ELISA signal, Anti-PSMA Fab with PSMA antigen” value (PSMA Fab (006 PSMA Fab) [4]) was 0.0864.

B16: Phage-2469 (peptide, not shown: large carriers)
peptide: VSKWCTPAWMCSAM
modifications: cysteine pairing not given here; also: displayed as fusion to phage pIII
notes: as for B1
In the case of B16, the “Phage binding ELISA signal … of PSMA” value (PSMA Fab [1]) is reported as 0.099 and the “Phage binding ELISA signal, Anti-PSMA Fab” value (PSMA Fab [2]) is reported as 1.24.

In the case of VDHWCTPEWMCVMM [Phage-2408], the “Phage binding ELISA signal, Anti-PSMA Fab” value (PSMA Fab (006 PSMA Fab) [3]) is reported as 1.36 and the “Phage binding ELISA signal, Anti-PSMA Fab with PSMA antigen” value (PSMA Fab (006 PSMA Fab) [4]) is reported as 0.0963.

B17: Phage-2479 (peptide, not shown: large carriers)
peptide: GFPMCKPLWMCENL
modifications: cysteine pairing not given here; also: displayed on phage as fusion to pIII, pIII and linker sequence not given here
notes: as for B1
For B17, the “Phage binding ELISA signal … of PSMA” value (PSMA Fab [1]) was 0.0667 and the “Phage binding ELISA signal, Anti-PSMA Fab” value (PSMA Fab [2]) was 1.23.

B18: Phage-2470 (peptide, not shown: large carriers)
peptide: VDKLCRPAWMCVAS
modifications: cysteine pairing not given here; also: displayed as fusion to phage pIII
notes: as for B1
For B18, the “Phage binding ELISA signal … of PSMA” value (PSMA Fab [1]) was 0.0775 and the “Phage binding ELISA signal, Anti-PSMA Fab” value (PSMA Fab [2]) was 1.24.

B19: Phage-2416 (peptide)
peptide: SERWCIPQWMCTAP
modifications: cysteine pairing not given here; also: displayed on bacteriophage by fusion to pIII
In the case of B19, the “Phage binding ELISA signal, Anti-PSMA Fab” value (PSMA Fab (006 PSMA Fab) [3]) is reported as 1.34 and the “Phage binding ELISA signal, Anti-PSMA Fab with PSMA antigen” value (PSMA Fab (006 PSMA Fab) [4]) is reported as 0.0763.

B20: Phage-2468 (peptide, not shown: large carriers)
peptide: FEKWCIPAWMCEQV
modifications: cysteine pairing not given here; also: displayed as fusion to phage pIII
notes: as for B1
B20 was tested, and the “Phage binding ELISA signal … of PSMA” value (PSMA Fab [1]) was 0.0596 and the “Phage binding ELISA signal, Anti-PSMA Fab” value (PSMA Fab [2]) was 1.24.

B21: Phage-2473 (peptide, not shown: large carriers)
peptide: PEHWCIPPWMCVVH
modifications: cysteine pairing not given here; also: displayed on phage as fusion to pIII, pIII and linker sequence not given here
notes: as for B1
For B21, the “Phage binding ELISA signal … of PSMA” value (PSMA Fab [1]) was 0.513 and the “Phage binding ELISA signal, Anti-PSMA Fab” value (PSMA Fab [2]) was 1.24.

B22: Phage-2475 (peptide, not shown: large carriers)
peptide: EHKWCTPLWMCEGL
modifications: cysteine pairing not given here; also: fused to phage pIII (clonal phage display)
notes: as for B1
With B22 the “Phage binding ELISA signal … of PSMA” value (PSMA Fab [1]) was 0.09 and the “Phage binding ELISA signal, Anti-PSMA Fab” value (PSMA Fab [2]) was 1.23.

B23: Phage-2406 (peptide)
peptide: PDKWCIPQWMCSQM
modifications: cysteine pairing not given here; also: fused to phage pIII (clonal phage display)
For B23, the “Phage binding ELISA signal, Anti-PSMA Fab” value (PSMA Fab (006 PSMA Fab) [3]) was 1.36 and the “Phage binding ELISA signal, Anti-PSMA Fab with PSMA antigen” value (PSMA Fab (006 PSMA Fab) [4]) was 0.0822.
